According to paper PMC2585067:

Target: EYFP, free protein expressed in HeLa cells (Aequoria victoria)
Assay: FRET or BRET

cross-bleed corrected FRET normalized to fluorescence of donor: 6.2%
Substance: ECFP, free protein expressed in HeLa cells
